Values quoted from earlier work in PMC8910571.

Biological target: T1, PTK7 (tyrosine kinase 7 protein) (UniProt Q13308)
T1 sequence: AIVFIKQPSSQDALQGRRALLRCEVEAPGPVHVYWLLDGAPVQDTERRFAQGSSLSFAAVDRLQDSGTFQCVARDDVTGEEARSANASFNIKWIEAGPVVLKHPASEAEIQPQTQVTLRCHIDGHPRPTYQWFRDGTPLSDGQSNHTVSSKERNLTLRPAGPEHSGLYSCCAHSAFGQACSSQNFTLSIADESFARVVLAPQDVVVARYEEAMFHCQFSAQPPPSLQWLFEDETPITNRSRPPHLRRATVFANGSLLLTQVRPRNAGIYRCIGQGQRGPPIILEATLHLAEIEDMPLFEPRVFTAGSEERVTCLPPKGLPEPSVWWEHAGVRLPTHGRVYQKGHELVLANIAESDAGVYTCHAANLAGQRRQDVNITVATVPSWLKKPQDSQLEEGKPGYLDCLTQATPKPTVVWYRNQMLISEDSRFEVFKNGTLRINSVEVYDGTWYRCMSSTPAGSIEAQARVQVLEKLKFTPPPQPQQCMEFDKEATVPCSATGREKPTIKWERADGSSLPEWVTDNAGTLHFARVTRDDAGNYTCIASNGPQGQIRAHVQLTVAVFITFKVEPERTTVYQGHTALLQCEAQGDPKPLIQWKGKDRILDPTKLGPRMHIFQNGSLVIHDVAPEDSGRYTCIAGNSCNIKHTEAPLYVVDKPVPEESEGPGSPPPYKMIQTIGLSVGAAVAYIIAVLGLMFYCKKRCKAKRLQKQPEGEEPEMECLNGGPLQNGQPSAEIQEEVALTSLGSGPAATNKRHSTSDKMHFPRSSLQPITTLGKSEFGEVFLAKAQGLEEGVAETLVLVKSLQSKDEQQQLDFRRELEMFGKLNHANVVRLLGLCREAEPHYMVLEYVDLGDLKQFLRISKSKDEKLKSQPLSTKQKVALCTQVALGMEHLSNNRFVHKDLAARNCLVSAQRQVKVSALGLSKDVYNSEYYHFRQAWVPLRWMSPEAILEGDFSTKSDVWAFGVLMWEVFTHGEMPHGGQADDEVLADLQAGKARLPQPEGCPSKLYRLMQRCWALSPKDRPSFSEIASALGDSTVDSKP

Question: With “ATCTAACTGCTGCGCCGCCGGGAAAATACTGTACGGTTAGA [Sgc8-c]” as the sequence, how does the Kd read?
Answer: The Kd was 0.78 nM.
